Results as given in patent publication US10119122B2, “Differentiation and expansion of endothelial cells from pluripotent stem cells and the in vitro formation of vasculature like structures” (Academisch Ziekenhuis Leiden, priority 2013, dated 2018).
“Also recorded” adds a separate entry of the source.

Key:
Assay type in all cases: cell-based, human
[1] = tested on: control iPSC-derived ECs co-cultured with control iPSC-derived pericytes/mesenchymal cells; assay: 2D endothelial-pericyte co-culture sprouting assay, control ECs; details: for formation of vascular/endothelial sprouts: TGFβ3 1 ng/ml, compared to control condition
Procedure: (§1) The endothelial capillary-like network formation assay was carried out as previously described but with major modifications (Evensen et al., 2013). These included using both ECs and pericytes derived from human iPSC lines. This is described in more detail elsewhere (Orlova et al., manuscript in preparation). ECs were labelled with the general cytoplasmic labeling dye (PKH-26). For the sprouting assay, 12,000 ECs derived from both control and diseased lines were plated with 50,000 control iPSC-derived pericytes/well on 0.1% gelatin coated 96-well plates in EGM-2 (Lonza, CC-3162). Next day and on the day 4 of the assay, medium was replaced with new EGM-2 media containing tested compounds as indicated in the figure legends. Endothelial-pericyte co-culture was terminated on day 7 of the assay each well immunofluorescently stained for quantification, as follows: co-cultures were fixed with the 4% paraformaldehyde (PFA), permeabilized with the 0.1% TX-100 and blocked with the normal goat serum (Dako). Endothelial sprouts were visualized with the mouse anti-CD31 (Dako, 1:200). In some experiment with the mouse blocking antibodies, rabbit anti-CD31 (Scbt, 1:200) was used instead. Pericytes were visualized with antibodies against SM22 (Sigma, 1:200). The endothelial network was imaged with the BD Pathway 855 system using the 4× or 10× objective and 2×2 (or 3×3) Montage mode. Total area covered by the endothelial sprouts was quantified with the protocol developed within cell image analysis software CellProfiller (Broad Institute). High magnification images were acquired with the SP5 confocal microscope, using 10× and 40× objectives.
A two-dimensional co-culture system was first established in vitro consisting of control iPSC-derived ECs cultured with the control iPSC-derived mesenchymal cells (FIG. 10A). The protocol was optimized and adapted to the BD Pathway 855 imaging system, based on the protocol initially described for the co-culture of HUVECs and vascular SMCs (vSMCs) (Evensen et al., 2013). On day 7 of the co-culture, iPSC-derived EC had organized and formed spouts on the top mesenchymal cells, as evidenced by immunofluorescent staining with the EC-specific CD31 and SMC-specific SM22 markers (FIG. 10B).
(§2) Endothelial cell-pericyte co-culture was performed as described previously (Evensen et al., 2013) but using conditions optimized for iPSC-derived ECs and pericytes as described (Orlova et al., manuscript in preparation). In brief, 12,000 and 50,000 iPSC-derived ECs and pericytes were plated, respectively, in each well of a 96-well plate. Next day the co-cultures were refreshed with the specific treatment conditions indicated. The co-culture was fixed on day 7, and EC sprouts stained with anti-CD31 antibody (1:200, Dako) (as described in Orlova et al., manuscript in preparation). Pericytes were visualized with the anti-SM22 antibody (1:200, Abcam). The BD Pathway 855 system was used for automatic image acquisition, with the 4× objective and 2×2 (or in some cases 3×3) montage mode. CellProfiller (Broad Institute) custom pipeline was used for the image quantification.

[2] = tested on: HHT1-iPSC-derived ECs co-cultured with control iPSC-derived pericytes; assay: 2D endothelial-pericyte co-culture sprouting assay, HHT1 patient ECs; details: day 7, HHT1-iPSC ECs; for formation of the sprouting network: BMP9 1 ng/ml; for formation of endothelial sprouts: TGFβ3 1 ng/ml
Procedure: as §1
It was hypothesized that this system might be useful for distinguishing […] versus paracrine effects of endoglin deficiency in HHT1-iPSCs-derived ECs. Therefore, ECs from HHT-iPSC lines in the co-culture assay combined with the pericytes derived from the control iPSCs were examined. Little difference was observed between ECs from HHT1 and control iPSCs in co-culture. ECs from the patient harboring the 1083delAA and IVS 5+2 (T>C) mutation similar endothelial sprout formation as the controls (FIGS. 11A and 11B).
as §2

[3] = tested on: iPSC-derived pericytes/mesenchymal cells; assay: Contractile smooth muscle marker expression in iPSC-derived pericytes/mesenchymal cells; details: stimulation with TGFb (FIG. 16)
Procedure: Our differentiation system facilitates simultaneous derivation and expansion of pericytes and ECs from iPSC lines. […] Thus, a renewable source of pericytes/SMCs was created for co-culture with ECs that would in principle be able to simulate endothelial-pericyte interaction in humans.
iPSC-derived pericytes/mesenchymal cells were derived from the CD31− fraction emerging during the endothelial differentiation protocol. CD31− cells were plated on gelatin coated plates in EGM-2 media (Lonza). After 4 days medium was replaced by DMEM+10% FBS supplemented with TGFβ3 (2 ng/ml, Peprotech) and PDGF-BB (4 ng/ml, Peprotech). iPSC-derived pericytes were routinely maintained on gelatin-coated plates in DMEM+10% FBS. Cells were characterized for the expression of pericyte and mesenchymal cell-specific markers by flow cytometry and immunofluorescent staining as describe above.
ECs and pericytes were cultured as described above on gelatin coated coverslips. Cells were fixed with 4% PFA, permeabilized and stained with the following antibodies as described (Orlova et al., Manuscript in preparation): anti-Ve-Cadherin (1:200, CellSignaling), anti-vWF (1:200, Dako), anti-CD31 (1:200, Dako), anti-SM22a (1:200, Abcam), anti-SMA (1:400, Sigma), anti-CNN1 (1:200, Sigma).

[4] = tested on: hPSCs; assay: Monolayer endothelial differentiation of hPSCs in defined medium, flow cytometry at day 10; details: additional Activin 25 ng/ml on days 0-3 (BVAC vs BVC); range of iPSC lines; data not shown
Source text: hiPSC lines were generated from Fib or BOECs using conditional lentiviral vectors containing the four transcription factors oct4, c-myc, Klf4 and Sox2, and characterized as described previously (Dambrot et al., 2013; Freund et al., 2008; Orlova et al., manuscript in preparation). hiPSCs and hESC (line HES-NL4; (van de Stolpe et al., 2005)) were routinely maintained on growth factor reduced MATRIGEL®-(BD, 354230) coated plates in mTeSR media (StemCell Technologies, 05850) and passaged mechanically. Differentiation was induced three days after passaging colonies by replacing mTeSR medium with the differentiation media based on BPEL (without PVA) (Ng et al., 2008) with timed addition of the following growth factors: 25 ng/ml ActivinA (Miltenyi, 130-095-547), 30 ng/ml BMP4 (Miltenyi, 130-095-549), VEGF165 (R&D Systems, 293-VE) and small molecule inhibitor CHIR99021 (Tocris, 4423). At day 3 and day 7 of differentiation, the media was refreshed with BPEL containing VEGF and 5 μM SB43152 (Tocris, 1614) only.
Cells were dissociated with TrypLE Select and washed once with the FACs buffer with the 10% FBS, followed by the single wash with the FACs buffer. […] In some experiment samples were analyzed with the MACSQuant VYB (Miltenyi). […]

C[C@H](NC(=O)Cc1cc(F)cc(F)c1)C(=O)N[C@H](C(=O)OC(C)(C)C)c1ccccc1 [DAPT, reference compound]
number of tip cells ([1]; 2D co-culture system with DAPT, 46 without DAPT): 64

c1ccc2c(-c3cnn4cc(-c5ccc(N6CCNCC6)cc5)cnc34)ccnc2c1 [LDN1931189, reference compound]
sprout formation ([1]; LDN1931189, inhibition of ALK1/ALK2/ALK3 pathway, day 7): no effect on sprout formation

B1: BMP9: BMP9 (R&D), ligand for signaling in ECs, circulating vascular quiescence factor (protein, UniProt Q9UK05 320-429, looked up)
Growth/differentiation factor …: SAGAGSHCQKTSLRVNFEDIGWDSWIIAPKEYEAYECKGGCFFPLADDVTPTKHAIVQTLVHLKFPTKVGKACCVPTKLSPISVLYKDDMGVPTLKYHYEGMSVAECGCR
formation of the sprouting network ([1]; BMP9 1 ng/ml, day 7, control iPSC ECs, listed as BMP-9): no effect at all | formation of the sprouting network [2]: selective inhibitory effect in HHT1-iPSC-derived ECs only | formation of the sprouting network ([2]; listed as BMP-9): significant inhibition

B2: TGFβ3: growth factor TGFβ3 (Peprotech), transforming growth factor β ligand (protein, UniProt P10600 301-412, looked up)
Transforming growth factor …: ALDTNYCFRNLEENCCVRPLYIDFRQDLGWKWVHEPKGYYANFCSGPCPYLRSADTTHSTVLGLYNTLNPEASASPCCVPQDLEPLTILYYVGRTPKVEQLSNMVVKSCKCS
modifications: Transforming growth factor beta-3
notes: growth factor TGFβ3 (Peprotech), transforming growth factor β ligand
up-regulation of vSMC contractile markers [3]: up-regulation of vSMC markers | formation of vascular/endothelial sprouts ([1]; day 7): dramatic reduction in the formation of the vascular sprouts; also recorded: inhibits sprout formation in all lines | formation of vascular/endothelial sprouts ([1]; day 7, listed as TGFβ): inhibited endothelial network formation | formation of endothelial sprouts [2]: inhibits sprout formation in all lines | formation of endothelial sprouts ([2]; listed as TGFβ): inhibited formation of the endothelial sprouts; also recorded: inhibited endothelial network formation

B3: TRC105: anti-endoglin blocking antibody, in clinical trial as an anti-tumor therapy (antibody, chains of the INN, looked up, V domains shown)
VH: EVKLEESGGGLVQPGGSMKLSCAASGFTFSDAWMDWVRQSPEKGLEWVAEIRSKASNHATYYAESVKGRFTISRDDSKSSVYLQMNSLRAEDTGIYYCTRWRRFFDSWGQGTTLTVSS
VL: QIVLSQSPAILSASPGEKVTMTCRASSSVSYMHWYQQKPGSSPKPWIYATSNLASGVPVRFSGSGSGTSYSLTISRVEAEDAATYYCQQWSSNPLTFGAGTKLELK
formation of sprouts by ECs ([1]; TRC105 120 μg/ml, day 7): reduction in the formation of the sprouts; also recorded: significantly reduced sprouting | surface area covered by ECs ([1]; TRC105, co-culture assay): significantly reduced

B4: Activin: growth factor ActivinA (Miltenyi), 25 ng/ml in mesoderm induction medium (protein, UniProt P08476 311-426, looked up)
Inhibin beta A chain: GLECDGKVNICCKKQFFVSFKDIGWNDWIIAPSGYHANYCEGECPSHIAGTSGSSLSFHSTVINHYRMRGHSPFANLKSCCVPTKLRPMSMLYYDDGQNIIKKDIQNMIVEECGCS
modifications: Inhibin beta A chain
robustness and reproducibility of differentiation [4]: more robust and reproducible differentiation
